Experimental findings from PMC3695229, “Identification of a Novel TGF-β-Binding Site in the Zona Pellucida C-terminal (ZP-C) Domain of TGF-β-Receptor-3 (TGFR-3)” (PLoS ONE, 2013) are described below.

What is called stoichiometry N is a count of units in the complex or per binding partner.

To fix the notation:
B1: murine TGFR-3-ZP (recombinant ZP domain of TGF-β receptor type 3, residues 438-782, including the EHP) (domain or fragment, mouse, UniProt O88393 438-782, looked up)
chain: REPEEVQGGVNIALSVKCDNEKMVVAVDKDSFQTNGYSGMELTLLDPSCKAKMNGTHFVLESPLNGCGTRHRRSAPDGVVYYNSIVVQAPSPGDSSGWPDGYEDLESGDNGFPGDTDEGETAPLSRAGVVVFNCSLRQLRSPSGFQDQLDGNATFNMELYNTDLFLVPSPGVFSVAENEHVYVEVSVTKADQDLGFAIQTCFISPYSNPDRMSDYTIIENICPKDDSVKFYSSKRVHFPIPHAEVDKKRFSFVFKSVFNTSLLFLHCELTLCSRNKGSQKLPKCVTPDDACTSLDATMIWTMMQNKKTFTKPLAVVLQVDYKENVPNMKESSPVPPPPQIFHGLD
modifications: secretory glycoprotein; four potential N-glycosylation sites (positions 491, 570, 589 and 696)
notes: TGF-β receptor type 3 (TGFR-3, betaglycan), mouse, residues 438-782 (ZP core domain plus C-terminal extension 729-782 with the EHP); numbering adheres to UniProtKB/TrEMBL O88393 and includes the N-terminal signal peptide; From the forward primer the thrombin site LVPRGS precedes residue 438, so Gly-Ser probably remain after cleavage (surmised); Dimer by DLS and SEC only (apparent masses); also …
B2: human BMP-2 (ligand, UniProt P12643 283-396, looked up)
chain: QAKHKQRKRLKSSCKRHPLYVDFSDVGWNDWIVAPPGYHAFYCHGECPFPLADHLNSTNHAIVQTLVNSVNSKIPKACCVPTELSAISMLYLDENEKVVLKNYQDMVVEGCGCR
modifications: biotinylated with Sulfo-NHS-LC-biotin (1 or 2 biotin moieties) for immobilisation
notes: bone morphogenetic protein 2, human; also called bone morphogenetic protein 2
B3: TGFR-3-ZP(234) (domain or fragment, mouse, UniProt O88393 438-782, looked up)
chain: B1 chain with N133Q, N152Q, N259Q
modifications: one remaining potential N-glycosylation site (N491)
notes: TGF-β receptor type 3 (TGFR-3, betaglycan), mouse, residues 438-782 with three of four potential N-glycosylation sites mutated to glutamine; numbering adheres to O88393 including the signal peptide; Same construct and vector as m1; also called glycosylation-attenuated TGFR-3-ZP variant; source: HEK293 EBNA cells, secreted, purified (Ni-Sepharose, thrombin cleavage, SEC); not shown: His6, …

Numbering of substitutions follows the chain as printed.

Data set [1] deals with the molecule itself. Briefly: dynamic light scattering; TGFR-3-ZP alone, 2 mg/ml, 20 mM HEPES pH 7.4, 20°C; apparent molecular weight from hydrodynamic radius.
The target in data set [2] is B1. Briefly: SPR; Biacore 2000; biotinylated ligands immobilised on streptavidin-coated CM5 chip, TGFR-3-ZP variants as analytes; 25°C, HBS500 (10 mM HEPES pH 7.4, 500 mM NaCl, 3.4 mM EDTA, 0.005% P20); apparent affinities from equilibrium binding. The conditions noted are these: both partners purified.
The data set “TGFR-3-ZP(234)” deals with B3. Described as above. The conditions noted are these: both partners purified.
Data set [3] concerns the molecule itself. The data set can be described thus: SEC; analytical SEC of the ligand-free protein on Superdex 200 10/300, 4°C, 0.5 ml/min; apparent molecular weight against standards. (In general: In gel filtration, larger molecules generally elute earlier.)

B1: the “stoichiometry N” value in data set [1] stood at 2.

Regarding B2, the Kd in data set [2] was 29.1 µM; with TGFR-3-ZP(234), 34.6 µM.

As for B3, the “stoichiometry N” value in data set [3] was 2.
